In PMC7512442:

Target: T1, RBM22 (pre-mRNA-splicing factor RBM22) (Homo sapiens, UniProt Q9NW64 1-420)
T1 sequence: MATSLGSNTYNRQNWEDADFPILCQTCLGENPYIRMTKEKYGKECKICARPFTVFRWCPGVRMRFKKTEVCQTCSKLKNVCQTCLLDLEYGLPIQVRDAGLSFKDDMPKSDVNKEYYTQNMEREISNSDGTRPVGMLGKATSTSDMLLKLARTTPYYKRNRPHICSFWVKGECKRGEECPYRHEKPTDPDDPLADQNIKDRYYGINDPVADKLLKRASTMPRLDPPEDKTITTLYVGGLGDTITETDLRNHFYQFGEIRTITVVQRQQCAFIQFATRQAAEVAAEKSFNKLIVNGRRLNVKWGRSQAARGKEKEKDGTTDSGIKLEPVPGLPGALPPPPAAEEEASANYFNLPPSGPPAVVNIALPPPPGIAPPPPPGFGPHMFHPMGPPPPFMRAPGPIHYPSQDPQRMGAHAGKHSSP
Assay: EMSA

B1: human U5 snRNA fragment (nonspecific control) (ssRNA)
RNA: GGGGAUCCACAUGGUUCUUGCCUUUU
B1: no binding.
